Test results: publication PMC6377406

Target: ΔN-PINK1-GFP (UniProt Q9BXM7)
Assay: co-IP; GFP IP (μMACS Epitope Tag Protein Isolation kit) of lysates of transfected HEK293 cells; immunoblot

Chain of UniProt Q9BXM7 (Q9BXM7 78-581, stated change not applied): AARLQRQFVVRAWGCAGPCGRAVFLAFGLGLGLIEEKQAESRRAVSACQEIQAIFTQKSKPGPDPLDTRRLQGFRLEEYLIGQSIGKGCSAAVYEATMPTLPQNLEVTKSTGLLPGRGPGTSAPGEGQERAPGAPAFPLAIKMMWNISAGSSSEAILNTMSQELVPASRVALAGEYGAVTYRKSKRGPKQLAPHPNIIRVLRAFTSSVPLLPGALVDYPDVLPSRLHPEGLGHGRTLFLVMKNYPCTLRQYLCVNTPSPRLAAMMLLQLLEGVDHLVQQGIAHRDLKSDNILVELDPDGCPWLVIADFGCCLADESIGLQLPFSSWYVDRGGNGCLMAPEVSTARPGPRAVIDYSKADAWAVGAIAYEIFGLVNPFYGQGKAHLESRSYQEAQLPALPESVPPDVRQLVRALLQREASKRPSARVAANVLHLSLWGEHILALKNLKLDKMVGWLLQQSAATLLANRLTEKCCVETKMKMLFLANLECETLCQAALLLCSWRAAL

Substance: valosin-containing protein (VCP), endogenous in HEK293 cells (from UniProt P55072 1-806) (natural protein)
- fold of VCP pulled down against OMM-PINK1-GFP: 4 fold
